# Measured values reported in patent publication US20200317768A1 (published 2020).
# T1: human FcγRIIaH extracellular domain, C-terminal His-tag (human, UniProt P12318 34-217)
# T1 construct: also called human FcγRIIa (type H); FcgRIIaH; not shown: His-tag added to the C-terminus
# T1 sequence: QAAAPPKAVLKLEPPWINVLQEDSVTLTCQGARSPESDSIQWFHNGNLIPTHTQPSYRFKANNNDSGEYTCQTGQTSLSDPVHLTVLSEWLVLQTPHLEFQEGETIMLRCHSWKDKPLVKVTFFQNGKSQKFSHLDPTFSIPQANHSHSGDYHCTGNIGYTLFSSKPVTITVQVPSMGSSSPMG
# Tests used:
# [1] = molecular target: T1, human FcγRIIaH extracellular domain, …; experiment: SPR; KD of SG1 divided by KD of variant;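 also: relative to parent M103205H795-SG1 carrying the SG1 human heavy chain constant region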
# Procedure: (§1) The kinetic analysis of interactions between these antibodies and FcγR was carried out using BIACORE® T200 or BIACORE® 4000 (GE Healthcare). HBS-EP+ (GE Healthcare) was used as the running buffer, and the measurement temperature was set to 25° C. A chip produced by immobilizing Protein A. Protein A/G or mouse anti-human IgG kappa light chain (BD Biosciences) onto a Series S Sensor Chip CM4 or CM5 (GE Healthcare) by the amine-coupling method was used. […] After the measurement, the antibody captured on the chip was washed off by allowing reaction with 10 mM glycine-HCl, pH1.5 and 25 mM NaOH so that the chip was regenerated and used repeatedly. The sensorgrams obtained as measurement results were analyzed by the 1:1 Langmuir binding model using the BIACORE® Evaluation Software to calculate the binding rate constant ka (L/mol/s) and dissociation rate constant kd (l/s), and the dissociation constant KD (mol/L) was calculated from these values. […] Regarding such interactions, KD values were calculated using the following 1:1 binding model described in BIACORE® T100 Software Handbook BR1006-48 Edition AE.
# [2] = molecular target: T2, cynomolgus monkey FcγRIIIaS extracellular domain, C-terminal His-tag (cynomolgus monkey, UniProt A3RFZ7 21-206 (rhesus entry)); experiment: SPR; KD of SG1 divided by KD of variant;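 also: relative to parent M103205H795-SG1 carrying the SG1 human heavy chain constant region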
# T2 construct: also called cyno FcγRIIIaS; FcgRIIIaS; not shown: His-tag added to the C-terminus
# T2 sequence (A3RFZ7 21-206): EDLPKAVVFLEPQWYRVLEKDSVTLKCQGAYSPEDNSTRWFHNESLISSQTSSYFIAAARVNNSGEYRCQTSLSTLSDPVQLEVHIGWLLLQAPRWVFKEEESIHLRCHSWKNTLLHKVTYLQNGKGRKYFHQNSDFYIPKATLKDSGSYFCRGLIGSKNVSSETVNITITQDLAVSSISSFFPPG
# Procedure: as §1
KD fold (SG1 = 1) [1] [fold],KD fold (SG1 = 1) [2] [fold],Binder
1,1,"MS1032LO06-SG1 (M103205H795-SG1/M103202L889-SK1) (antibody, human IgG1, kappa, Anti-latent myostatin antibody) heavy: not shown light: DIVMTQSPATLSLSPGERATLSCTSSQSVYHANWLSWFQQKPGQPPKLLIYWASTLAYGVPSRFSGSGSGTDFTLTISSLQPEDAATYYCAGGYGGGRYAFGQGTKVEIKRTVAAPSVFIFPPSDEQLKSGTASVVCLLNNFYPREAKVQWKVDNALQSGNSQESVTEQDSKDSTYSLSSTLTLSKADYEKHKVYACEVTHQGLSSPVTKSFNRGEC"
0.9,0.08,"MS1032LO06-MY201 (M103205H795-MY201/M103202L889-SK1) (antibody, human IgG1, kappa, CH MY201 = SG1 with G236N/H268D/A330K (EU numbering); also called MS103205H795-MY201) heavy: QVTLKESGPVLVKPTETLTLTCTVSGIDLSHDDISWVRQAPGKGLEWVGIISYAGSTYYASWAKGRLTISKDTSKNQVVLTMTNMDPVDTATYYCARGVPAYSHGGDLWGQGTLVTVSSASTKGPSVFPLAPSSKSTSGGTAALGCLVKDYFPEPVTVSWNSGALTSGVHTFPAVLQSSGLYSLSSVVTVPSSSLGTQTYICNVNHKPSNTKVDKKVEPKSCDKTHTCPPCPAPELLNGPSVFLFPPKPKDTLMISRTPEVTCVVVDVSDEDPEVKFNWYVDGVEVHNAKTKPREEQYNSTYRVVSVLTVLHQDWLNGKEYKCKVSNKALPKPIEKTISKAKGQPREPQVYTLPPSREEMTKNQVSLTCLVKGFYPSDIAVEWESNGQPENNYKTTPPVLDSDGSFFLYSKLTVDKSRWQQGNVFSCSVMHEALHNHYTQKSLSLSP light: DIVMTQSPATLSLSPGERATLSCTSSQSVYHANWLSWFQQKPGQPPKLLIYWASTLAYGVPSRFSGSGSGTDFTLTISSLQPEDAATYYCAGGYGGGRYAFGQGTKVEIKRTVAAPSVFIFPPSDEQLKSGTASVVCLLNNFYPREAKVQWKVDNALQSGNSQESVTEQDSKDSTYSLSSTLTLSKADYEKHKVYACEVTHQGLSSPVTKSFNRGEC"
1.1,0.08,"MS1032LO06-PK55 (M103205H795-PK55/M103202L889-SK1) (antibody, human IgG1, kappa, CH PK55 = SG1 with G236N/H268D/Q311R/A330K/P343R (EU numbering); also called MS103205H795-PK55) heavy: QVTLKESGPVLVKPTETLTLTCTVSGIDLSHDDISWVRQAPGKGLEWVGIISYAGSTYYASWAKGRLTISKDTSKNQVVLTMTNMDPVDTATYYCARGVPAYSHGGDLWGQGTLVTVSSASTKGPSVFPLAPSSKSTSGGTAALGCLVKDYFPEPVTVSWNSGALTSGVHTFPAVLQSSGLYSLSSVVTVPSSSLGTQTYICNVNHKPSNTKVDKKVEPKSCDKTHTCPPCPAPELLNGPSVFLFPPKPKDTLMISRTPEVTCVVVDVSDEDPEVKFNWYVDGVEVHNAKTKPREEQYNSTYRVVSVLTVLHRDWLNGKEYKCKVSNKALPKPIEKTISKAKGQRREPQVYTLPPSREEMTKNQVSLTCLVKGFYPSDIAVEWESNGQPENNYKTTPPVLDSDGSFFLYSKLTVDKSRWQQGNVFSCSVMHEALHNHYTQKSLSLSP light: DIVMTQSPATLSLSPGERATLSCTSSQSVYHANWLSWFQQKPGQPPKLLIYWASTLAYGVPSRFSGSGSGTDFTLTISSLQPEDAATYYCAGGYGGGRYAFGQGTKVEIKRTVAAPSVFIFPPSDEQLKSGTASVVCLLNNFYPREAKVQWKVDNALQSGNSQESVTEQDSKDSTYSLSSTLTLSKADYEKHKVYACEVTHQGLSSPVTKSFNRGEC"
0.7,0.07,"MS1032LO06-MY352 (M103205H795-MY352/M103202L889-SK1) (antibody, human IgG1, kappa, name in EU numbering, Printed substitutions: G236N/H268D/Q311R/A330K/D413R (EU numbering); also called MS103205H795-MY352) heavy: QVTLKESGPVLVKPTETLTLTCTVSGIDLSHDDISWVRQAPGKGLEWVGIISYAGSTYYASWAKGRLTISKDTSKNQVVLTMTNMDPVDTATYYCARGVPAYSHGGDLWGQGTLVTVSSASTKGPSVFPLAPSSKSTSGGTAALGCLVKDYFPEPVTVSWNSGALTSGVHTFPAVLQSSGLYSLSSVVTVPSSSLGTQTYICNVNHKPSNTKVDKKVEPKSCDKTHTCPPCPAPELLNGPSVFLFPPKPKDTLMISRTPEVTCVVVDVSDEDPEVKFNWYVDGVEVHNAKTKPREEQYNSTYRVVSVLTVLHRDWLNGKEYKCKVSNKALPKPIEKTISKAKGQPREPQVYTLPPSREEMTKNQVSLTCLVKGFYPSDIAVEWESNGQPENNYKTTPPVLDSDGSFFLYSKLTVRKSRWQQGNVFSCSVMHEALHNHYTQKSLSLSP light: DIVMTQSPATLSLSPGERATLSCTSSQSVYHANWLSWFQQKPGQPPKLLIYWASTLAYGVPSRFSGSGSGTDFTLTISSLQPEDAATYYCAGGYGGGRYAFGQGTKVEIKRTVAAPSVFIFPPSDEQLKSGTASVVCLLNNFYPREAKVQWKVDNALQSGNSQESVTEQDSKDSTYSLSSTLTLSKADYEKHKVYACEVTHQGLSSPVTKSFNRGEC"
0.7,0.06,"MS1032LO06-PK57 (M103205H795-PK57/M103202L889-SK1) (antibody, human IgG1, kappa, CH PK57 = SG1 with G236N/H268D/Q311R/A330K/N384R/D413R (EU numbering); also called MS103205H795-PK57) heavy: QVTLKESGPVLVKPTETLTLTCTVSGIDLSHDDISWVRQAPGKGLEWVGIISYAGSTYYASWAKGRLTISKDTSKNQVVLTMTNMDPVDTATYYCARGVPAYSHGGDLWGQGTLVTVSSASTKGPSVFPLAPSSKSTSGGTAALGCLVKDYFPEPVTVSWNSGALTSGVHTFPAVLQSSGLYSLSSVVTVPSSSLGTQTYICNVNHKPSNTKVDKKVEPKSCDKTHTCPPCPAPELLNGPSVFLFPPKPKDTLMISRTPEVTCVVVDVSDEDPEVKFNWYVDGVEVHNAKTKPREEQYNSTYRVVSVLTVLHRDWLNGKEYKCKVSNKALPKPIEKTISKAKGQPREPQVYTLPPSREEMTKNQVSLTCLVKGFYPSDIAVEWESRGQPENNYKTTPPVLDSDGSFFLYSKLTVRKSRWQQGNVFSCSVMHEALHNHYTQKSLSLSP light: DIVMTQSPATLSLSPGERATLSCTSSQSVYHANWLSWFQQKPGQPPKLLIYWASTLAYGVPSRFSGSGSGTDFTLTISSLQPEDAATYYCAGGYGGGRYAFGQGTKVEIKRTVAAPSVFIFPPSDEQLKSGTASVVCLLNNFYPREAKVQWKVDNALQSGNSQESVTEQDSKDSTYSLSSTLTLSKADYEKHKVYACEVTHQGLSSPVTKSFNRGEC"
0.8,0.06,"MS1032LO06-PK56 (M103205H795-PK56/M103202L889-SK1) (antibody, human IgG1, kappa, CH PK56 = SG1 with G236N/H268D/Q311R/A330K/P343R/D413R (EU numbering); also called MS103205H795-PK56) heavy: QVTLKESGPVLVKPTETLTLTCTVSGIDLSHDDISWVRQAPGKGLEWVGIISYAGSTYYASWAKGRLTISKDTSKNQVVLTMTNMDPVDTATYYCARGVPAYSHGGDLWGQGTLVTVSSASTKGPSVFPLAPSSKSTSGGTAALGCLVKDYFPEPVTVSWNSGALTSGVHTFPAVLQSSGLYSLSSVVTVPSSSLGTQTYICNVNHKPSNTKVDKKVEPKSCDKTHTCPPCPAPELLNGPSVFLFPPKPKDTLMISRTPEVTCVVVDVSDEDPEVKFNWYVDGVEVHNAKTKPREEQYNSTYRVVSVLTVLHRDWLNGKEYKCKVSNKALPKPIEKTISKAKGQRREPQVYTLPPSREEMTKNQVSLTCLVKGFYPSDIAVEWESNGQPENNYKTTPPVLDSDGSFFLYSKLTVRKSRWQQGNVFSCSVMHEALHNHYTQKSLSLSP light: DIVMTQSPATLSLSPGERATLSCTSSQSVYHANWLSWFQQKPGQPPKLLIYWASTLAYGVPSRFSGSGSGTDFTLTISSLQPEDAATYYCAGGYGGGRYAFGQGTKVEIKRTVAAPSVFIFPPSDEQLKSGTASVVCLLNNFYPREAKVQWKVDNALQSGNSQESVTEQDSKDSTYSLSSTLTLSKADYEKHKVYACEVTHQGLSSPVTKSFNRGEC"
0.7,0.07,"MS1032LO06-MY351 (M103205H795-MY351/M103202L889-SK1) (antibody, human IgG1, kappa, CH MY351 = SG1 with G236N/H268D/Q311R/A330K/D413K (EU numbering); also called MS103205H795-MY351) heavy: QVTLKESGPVLVKPTETLTLTCTVSGIDLSHDDISWVRQAPGKGLEWVGIISYAGSTYYASWAKGRLTISKDTSKNQVVLTMTNMDPVDTATYYCARGVPAYSHGGDLWGQGTLVTVSSASTKGPSVFPLAPSSKSTSGGTAALGCLVKDYFPEPVTVSWNSGALTSGVHTFPAVLQSSGLYSLSSVVTVPSSSLGTQTYICNVNHKPSNTKVDKKVEPKSCDKTHTCPPCPAPELLNGPSVFLFPPKPKDTLMISRTPEVTCVVVDVSDEDPEVKFNWYVDGVEVHNAKTKPREEQYNSTYRVVSVLTVLHRDWLNGKEYKCKVSNKALPKPIEKTISKAKGQPREPQVYTLPPSREEMTKNQVSLTCLVKGFYPSDIAVEWESNGQPENNYKTTPPVLDSDGSFFLYSKLTVKKSRWQQGNVFSCSVMHEALHNHYTQKSLSLSP light: DIVMTQSPATLSLSPGERATLSCTSSQSVYHANWLSWFQQKPGQPPKLLIYWASTLAYGVPSRFSGSGSGTDFTLTISSLQPEDAATYYCAGGYGGGRYAFGQGTKVEIKRTVAAPSVFIFPPSDEQLKSGTASVVCLLNNFYPREAKVQWKVDNALQSGNSQESVTEQDSKDSTYSLSSTLTLSKADYEKHKVYACEVTHQGLSSPVTKSFNRGEC"
